Test results published in publication PMC7794242.

Molecular target: HCoV-229E S glycoprotein wild-type soluble ectodomain (residues 1-1116) with C-terminal GCN4 trimerization motif (HCoV-229E) (UniProt P15423)
Assay: cryo-EM structure; S trimer peak 2 (conformation 1, 3.21 A) and peak 3 (conformation 2, 3.55 A) samples at 0.75 mg/ml; C3 symmetry applied

HCoV-229E S glycoprotein wild-type soluble ectodomain (residues 1-1116) with C-terminal GCN4 trimerization motif (from UniProt P15423 16-1116) (domain or fragment)
stoichiometry N: 3
